These results are taken from patent US20250313615A1 (ANNEXON, published 2025).

In this experiment the target is T1, complement factor C1q (Homo sapiens, UniProt P02745 23-245; P02746 28-253; P02747 29-245).
T1 construct: also called soluble C1q
The experiment can be described thus: in vivo, phase 1b interim analysis in four lupus nephritis patients; pharmacodynamic read-out.

T1 sequence (P02745 23-245 limits assumed, chain 1 of 3): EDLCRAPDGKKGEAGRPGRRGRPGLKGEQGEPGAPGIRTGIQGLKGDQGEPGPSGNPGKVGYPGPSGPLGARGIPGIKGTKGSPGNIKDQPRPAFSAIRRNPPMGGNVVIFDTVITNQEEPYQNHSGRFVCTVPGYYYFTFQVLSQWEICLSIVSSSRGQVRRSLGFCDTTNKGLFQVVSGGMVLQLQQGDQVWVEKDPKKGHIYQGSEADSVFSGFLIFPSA
T1 sequence (P02746 28-253 limits assumed, chain 2 of 3): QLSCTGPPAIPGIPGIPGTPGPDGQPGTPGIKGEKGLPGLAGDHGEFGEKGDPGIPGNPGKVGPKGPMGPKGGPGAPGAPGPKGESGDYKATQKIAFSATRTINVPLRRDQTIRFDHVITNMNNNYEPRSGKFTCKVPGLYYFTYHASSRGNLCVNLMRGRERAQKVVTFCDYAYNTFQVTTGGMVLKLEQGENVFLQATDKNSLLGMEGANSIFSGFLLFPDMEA
T1 sequence (P02747 29-245 limits assumed, chain 3 of 3): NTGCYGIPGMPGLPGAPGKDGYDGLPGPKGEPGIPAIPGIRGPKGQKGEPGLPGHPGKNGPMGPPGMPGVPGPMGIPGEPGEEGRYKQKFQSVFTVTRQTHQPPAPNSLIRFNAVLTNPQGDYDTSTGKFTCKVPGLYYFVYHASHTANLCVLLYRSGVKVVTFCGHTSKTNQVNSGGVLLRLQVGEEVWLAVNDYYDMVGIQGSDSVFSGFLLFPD

B1: FabA (Fab)
heavy: QVQLVQSGAELKKPGASVKVSCKSSGYHFTSYWMHWVKQAPGQGLEWIGVIHPNSGSINYNEKFESRVTITVDKSTSTAYMELSSLRSEDTAVYYCAGERDSTEVLPMDYWGQGTTVTVSSASTKGPSVFPLAPSSKSTSGGTAALGCLVKDYFPEPVTVSWNSGALTSGVHTFPAVLQSSGLYSLSSVVTVPSSSLGTQTYICNVNHKPSNTKVDKKVEPKSCDKTHT
light: DVQITQSPSSLSASLGERATINCRASKSINKYLAWYQQKPGKAPKLLIYSGSTLQSGIPARFSGSGSGTDFTLTISSLEPEDFAMYYCQQHNEYPLTFGQGTKLEIKRTVAAPSVFIFPPSDEQLKSGTASVVCLLNNFYPREAKVQWKVDNALQSGNSQESVTEQDSKDSTYSLSSTLTLSKADYEKHKVYACEVTHQGLSSPVTKSFNRGEC
notes: also called anti-C1q Fab; anti-C1q antibody Fab fragment
Regarding B1, the binding result was “binds”.
